The assay concerns the target human MUC17 (huMUC17), membrane form (human, UniProt Q685J3 26-4493). The experiment in a line: immunohistochemistry on tissue sections.

One molecule from patent publication US20230129844A1 (Amgen, published 2023) can be followed below.

B1: anti-huMUC17 4C11 IHC antibody (antibody, mouse IgG2a, kappa, V domains shown)
VH: EVQLQQSGPELVKPGDSVKISCKASGYSFTGNFLNWVMQSHGKSLEWIGRITPYSGETFYNQKFKDKATLTVDISSSIAHMELRSLTSEDSAVYYCARGVTTEVSHYYAMDYWGQGTAVTVSS
VL: DIQMNQSPSSLSASLGDTITITCHASQNINLWLHWYQQKPGNIPKLLIFKASNLHTGVPLRFSGSGSGTGFTLTISSLQPEDIATYFCQQGQSYPLTFGGGTKLEIKR
notes: Mouse hybridoma-derived monoclonal antibody; also called 4C11 antibody; the antibody of the invention
On to B1, for which the binding result is on record as “binds”.
